Laboratory results: US20220135655A1 (Dana-Farber, published 2022)

B1: 9H3 (scFv)
scFv: QVQLVQSGAEVKKPGSSVKVSCKASGGIFSSYAISWVRQAPGQGLEWMGGISPIFGTANYAQKFQGRVTITADESTNTAYMELSSLRSEDTAVYYCARSGGYYDYGVGYDQWGQGTLVTVSSGGGSGGGSGGGSGGGSQPVLTQPPSASGTPGQRVTISCSGGRSNIGSNTVNWYQQLPGTAPKLLIYSNNHRPSGVPDRFSGSKSGNTASLTISGLQAEDEADYYCQSYDSSVVFGGGTKLTVL
B2: 6F3 (scFv)
scFv: QVQLVQSGAEVKKPGSSVKVSCKASGGPFSSYAISWVRQAPGQGLEWMGGISPMFGTANYAQKFQGRVTITADESTSTVYMELSSLRSEDTAVYYCARGYSYYPGGGGGRNFDYWGQGTLVTVSSGGGSGGGSGGGSGGGSLPVLTQPPSASGTPGQRVTISCSGSSSNIGSNTVNWYQQLPGTAPKLLIYSNNQRPSGVPDRFSGSKSGTSASLAISGLQSEGEADYYCAAWDDSLKGRVFGGGTKVTVL
B3: 5A8 (scFv)
scFv: QVQLVQSGAEVKKPGSSVKVSCKASGGTFSSYAISWVRQAPGQGLEWMGGISPIFGTANYAQKFQGRVTITADESTSTVYMELSSLRSEDTAVYYCARGPGYHPAGASGQFFDLWGQGTLVTVSSGGGSGGGSGGGSGGGSSYELTQPPSVSKDLRQTATLTCTGNSNNVGNQGAAWLQQHQGHPPKLLSYRNNHRPSGISDRSSASRSGDTASLTITGLQPEDEADYYCSAWDSSLSAWVFGGGTKLTVL
B4: 5B9 (scFv)
scFv: QVQLVQSGAEVKKPGSSVKVSCKASGVTFSSYAISWVRQAPGQGLEWMGGISPMFGTANYAQKFQGRVTITADESTNTAYMELSSLRSEDTAVYYCARGRGYAPDALTNFDVWGQGTLVTVSSGGGSGGGSGGGSGGGSEIVLTQSPDSLAMSLGERATVNCKSSRSLFDSSDNKNYLAWYQKKPGQPPQLLIYWASTRQSGVPDRFSGSGSGTDFTLTISSLQAEDVAVYYCQQYFSSPPIFTFGPGTKVEIK

Biological target: A/California/04/2009 (H1CA0409) recombinant HA (influenza A virus A/California/04/2009, UniProt P26140 18-529)
Assay: phage display panning (immunotube) against trimeric HA

Binder	binding result
B1	binds
B2	binds
B3	binds
B4	binds
